Measured values taken from patent US20240189392A1 (AMBRX, published 2024).
Where “and” joins values, the source holds several entries; their conditions need not be identical. Equal entries are not always repeated. Positions of bridges follow the written chain, without caps; N, C: chain ends. Non-standard residues stand in square brackets, D forms with d. Chains are numbered I, II in the order given. No end group written: not given here. PEG20K = 20 kDa polyethylene glycol, linked to pAF (e.g. via oxime linkage); Phe(4-Ac) = CC(=O)c1ccc(C[C@H](N)C(=O)O)cc1

T1: human RXFP1 (human, UniProt Q9HBX9 1-757)
T1 sequence (looked up): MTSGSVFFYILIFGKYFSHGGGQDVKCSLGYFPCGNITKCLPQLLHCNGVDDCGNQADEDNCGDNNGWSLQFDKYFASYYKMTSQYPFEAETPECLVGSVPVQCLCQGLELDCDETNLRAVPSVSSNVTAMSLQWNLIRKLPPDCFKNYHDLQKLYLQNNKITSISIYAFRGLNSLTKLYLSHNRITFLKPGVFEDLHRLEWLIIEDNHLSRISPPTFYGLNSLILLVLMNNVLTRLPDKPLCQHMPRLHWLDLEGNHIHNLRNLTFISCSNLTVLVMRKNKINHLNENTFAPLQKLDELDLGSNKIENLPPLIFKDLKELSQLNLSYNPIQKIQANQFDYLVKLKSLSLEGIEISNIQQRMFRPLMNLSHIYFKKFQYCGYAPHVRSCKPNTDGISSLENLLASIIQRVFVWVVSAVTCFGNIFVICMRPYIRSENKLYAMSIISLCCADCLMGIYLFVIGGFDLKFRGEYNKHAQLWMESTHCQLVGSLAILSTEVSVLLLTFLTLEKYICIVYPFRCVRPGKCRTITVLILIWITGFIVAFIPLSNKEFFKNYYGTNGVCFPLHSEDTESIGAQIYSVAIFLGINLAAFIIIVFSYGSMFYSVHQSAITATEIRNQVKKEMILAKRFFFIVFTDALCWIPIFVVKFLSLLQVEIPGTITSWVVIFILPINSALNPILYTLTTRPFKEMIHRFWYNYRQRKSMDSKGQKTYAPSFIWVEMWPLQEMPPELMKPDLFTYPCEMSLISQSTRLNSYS

T2: cynomolgus monkey RXFP1 (cynomolgus monkey, UniProt H9ERA2 1-757 (rhesus entry))
T2 sequence: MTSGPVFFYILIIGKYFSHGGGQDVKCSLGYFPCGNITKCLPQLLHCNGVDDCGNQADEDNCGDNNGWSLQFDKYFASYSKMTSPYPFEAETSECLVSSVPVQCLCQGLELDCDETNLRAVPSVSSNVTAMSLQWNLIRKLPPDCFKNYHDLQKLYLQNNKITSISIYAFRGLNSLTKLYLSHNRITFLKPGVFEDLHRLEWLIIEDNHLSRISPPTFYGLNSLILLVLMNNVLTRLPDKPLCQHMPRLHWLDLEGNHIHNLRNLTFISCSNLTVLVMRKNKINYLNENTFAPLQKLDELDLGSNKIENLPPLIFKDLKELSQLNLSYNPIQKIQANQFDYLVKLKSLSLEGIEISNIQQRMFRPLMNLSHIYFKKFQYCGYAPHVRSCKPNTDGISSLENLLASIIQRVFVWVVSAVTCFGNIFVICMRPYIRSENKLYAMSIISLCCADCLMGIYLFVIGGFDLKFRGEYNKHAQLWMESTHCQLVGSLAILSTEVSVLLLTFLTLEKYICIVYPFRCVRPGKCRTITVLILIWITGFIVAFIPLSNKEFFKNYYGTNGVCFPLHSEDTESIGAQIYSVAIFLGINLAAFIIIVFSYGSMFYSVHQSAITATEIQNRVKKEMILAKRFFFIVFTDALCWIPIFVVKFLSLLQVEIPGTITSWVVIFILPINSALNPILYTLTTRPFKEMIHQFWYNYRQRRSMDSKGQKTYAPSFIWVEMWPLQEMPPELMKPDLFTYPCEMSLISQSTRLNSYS

T3: human RXFP3 (human, UniProt Q9NSD7 1-469)
T3 sequence (looked up): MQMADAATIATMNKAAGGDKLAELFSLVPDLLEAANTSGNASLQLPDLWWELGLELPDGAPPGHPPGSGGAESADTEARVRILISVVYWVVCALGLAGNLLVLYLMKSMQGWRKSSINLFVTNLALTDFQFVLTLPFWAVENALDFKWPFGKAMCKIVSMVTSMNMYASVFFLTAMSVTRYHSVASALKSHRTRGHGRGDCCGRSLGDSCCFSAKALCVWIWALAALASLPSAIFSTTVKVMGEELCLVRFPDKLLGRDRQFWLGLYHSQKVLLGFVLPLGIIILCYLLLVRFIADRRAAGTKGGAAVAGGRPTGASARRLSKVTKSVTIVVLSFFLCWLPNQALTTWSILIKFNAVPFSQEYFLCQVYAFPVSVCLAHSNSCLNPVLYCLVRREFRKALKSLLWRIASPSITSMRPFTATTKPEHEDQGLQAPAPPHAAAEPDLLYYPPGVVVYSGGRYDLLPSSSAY

T4: mouse RXFP1 (mouse, UniProt Q6R6I7 1-758)
T4 sequence (looked up): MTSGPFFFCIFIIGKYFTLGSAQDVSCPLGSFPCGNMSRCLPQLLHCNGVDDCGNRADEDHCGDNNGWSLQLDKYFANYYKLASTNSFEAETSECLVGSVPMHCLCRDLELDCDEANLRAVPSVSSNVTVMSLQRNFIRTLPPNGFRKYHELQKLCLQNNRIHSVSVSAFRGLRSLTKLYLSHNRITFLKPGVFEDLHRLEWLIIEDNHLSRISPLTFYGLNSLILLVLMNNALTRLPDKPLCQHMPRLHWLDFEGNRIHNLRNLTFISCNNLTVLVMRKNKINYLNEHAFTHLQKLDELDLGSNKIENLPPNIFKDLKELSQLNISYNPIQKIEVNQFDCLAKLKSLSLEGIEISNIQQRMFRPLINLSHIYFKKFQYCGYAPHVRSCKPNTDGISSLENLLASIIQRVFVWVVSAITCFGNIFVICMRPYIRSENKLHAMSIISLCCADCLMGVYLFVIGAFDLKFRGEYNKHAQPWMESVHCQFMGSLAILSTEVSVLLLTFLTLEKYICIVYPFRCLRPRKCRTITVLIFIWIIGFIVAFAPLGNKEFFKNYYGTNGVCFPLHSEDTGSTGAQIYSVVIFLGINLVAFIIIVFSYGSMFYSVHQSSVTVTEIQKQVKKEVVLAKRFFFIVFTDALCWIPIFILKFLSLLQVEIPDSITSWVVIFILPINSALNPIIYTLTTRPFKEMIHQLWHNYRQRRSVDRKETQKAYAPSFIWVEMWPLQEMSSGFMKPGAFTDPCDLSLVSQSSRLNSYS

T5: rat RXFP1 (rat, UniProt Q6R6I6 1-758)
T5 sequence (looked up): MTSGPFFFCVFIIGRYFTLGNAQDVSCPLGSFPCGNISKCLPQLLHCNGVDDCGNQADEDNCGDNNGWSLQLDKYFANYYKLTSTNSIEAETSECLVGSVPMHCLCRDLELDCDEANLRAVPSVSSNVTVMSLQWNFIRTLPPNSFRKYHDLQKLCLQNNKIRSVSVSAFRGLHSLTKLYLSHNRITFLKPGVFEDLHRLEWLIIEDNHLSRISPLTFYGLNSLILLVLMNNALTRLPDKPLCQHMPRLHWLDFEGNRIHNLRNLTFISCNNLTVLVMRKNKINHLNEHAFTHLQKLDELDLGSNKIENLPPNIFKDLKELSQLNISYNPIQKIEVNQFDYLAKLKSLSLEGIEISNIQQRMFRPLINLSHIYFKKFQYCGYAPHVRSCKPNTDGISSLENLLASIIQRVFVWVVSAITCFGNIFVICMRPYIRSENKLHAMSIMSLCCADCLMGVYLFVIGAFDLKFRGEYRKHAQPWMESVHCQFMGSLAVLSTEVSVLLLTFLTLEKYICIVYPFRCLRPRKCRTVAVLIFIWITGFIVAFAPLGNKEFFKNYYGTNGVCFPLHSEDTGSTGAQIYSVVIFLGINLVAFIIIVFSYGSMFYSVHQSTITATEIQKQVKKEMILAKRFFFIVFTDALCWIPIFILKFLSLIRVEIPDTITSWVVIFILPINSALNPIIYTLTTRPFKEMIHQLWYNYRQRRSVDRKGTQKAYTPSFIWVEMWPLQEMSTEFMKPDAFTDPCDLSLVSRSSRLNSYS


Key:
Assay in all cases: cell-based or functional assay
[1] = target: T1, human RXFP1
[2] = target: T1, human RXFP1; remark: listed apart in the source
[3] = target: T2, cynomolgus monkey RXFP1
[4] = target: T3, human RXFP3
[5] = target: dog RXFP1 (dog)
[6] = target: T4, mouse RXFP1
[7] = target: T5, rat RXFP1
[8] = target: human RXFP4 (human, UniProt Q8TDU9 1-374)
[9] = target: T1, human RXFP1; remark: listed apart in the source

Chain of human RXFP4 (Q8TDU9 whole entry): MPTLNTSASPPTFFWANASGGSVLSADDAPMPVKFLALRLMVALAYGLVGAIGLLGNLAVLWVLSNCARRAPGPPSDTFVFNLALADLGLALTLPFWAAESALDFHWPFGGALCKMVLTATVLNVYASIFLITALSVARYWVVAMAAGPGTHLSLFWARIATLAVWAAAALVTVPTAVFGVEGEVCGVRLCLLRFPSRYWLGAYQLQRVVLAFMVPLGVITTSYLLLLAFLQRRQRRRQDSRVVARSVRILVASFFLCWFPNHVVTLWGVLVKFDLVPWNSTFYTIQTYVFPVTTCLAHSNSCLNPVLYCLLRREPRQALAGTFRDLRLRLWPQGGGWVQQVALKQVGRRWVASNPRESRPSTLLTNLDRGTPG

| Binder | Functional Assay Raw EC50 Values [ng/mL]; cAMP increase in THP-1 cells, 11/5/2010 [1] | In vitro Activity Fold Loss [2] | Functional Assay Raw EC50 Values [ng/mL]; cAMP increase in THP-1 cells, 11/4/2010 [1] | also measured |
| --- | --- | --- | --- | --- |
| RLX-A-BE5-20KPEG (ligand, not fully specified (bridges); ends and bridges not checked) chain 1: QLYSALANKCCHVGCTKRSLARFC chain 2: ASWM[Phe(4-Ac)](PEG20K)EVIKLCGRELVRAQIAICGMSTWS | 45 ng/mL | 17 fold | – | – |
| wild-type relaxin (human relaxin 2) (ligand, disulfide I:10-I:15, I:11-II:11, I:24-II:23) chain 1: QLYSALANKCCHVGCTKRSLARFC chain 2: DSWMEEVIKLCGRELVRAQIAICGMSTWS | 1.5 ng/mL and 1 ng/mL | – | 1.5 ng/mL | cAMP Assay EC50 (nM), cyno RXFP1/CHO-K1 cells [3]: 0.06 nM; cAMP Assay EC50 (nM), inhibition of forskolin-induced cAMP, human RXFP3/CHO-K1 cells [4]: > 3000 nM; cAMP Assay EC50 (nM), dog RXFP1/CHO-K1 cells [5]: 0.56 nM; cAMP Assay EC50 (nM), mouse RXFP1/CHO-K1 cells [6]: 0.1 nM; cAMP Assay EC50 (nM), rat RXFP1/CHO-K1 cells [7]: 0.03 nM; cAMP Assay EC50 (nM), inhibition of forskolin-induced cAMP, human RXFP4/CHO-K1 cells [8]: > 3000 nM; cAMP Assay EC50 (nM), THP-1 cells [9]: 0.3 nM; cAMP Assay EC50 (nM), hRXFP1/CHO-K1 cells [9]: 0.1 nM |
| RLX-A-BW28-20KPEG (ligand, not fully specified (bridges); ends and bridges not checked) chain 1: QLYSALANKCCHVGCTKRSLARFC chain 2: ASWMEEVIKLCGRELVRAQIAICGMST[Phe(4-Ac)](PEG20K)S | – | 48 fold | 172 ng/mL | – |
| RLX-A-WT (human relaxin 2 with alanine at the first position of the B chain) (ligand, not fully specified (bridges); ends and bridges not checked) chain 1: QLYSALANKCCHVGCTKRSLARFC chain 2: ASWMEEVIKLCGRELVRAQIAICGMSTWS | 3.3 ng/mL and 2.6 ng/mL | – | 3.6 ng/mL | – |
| RLX-A-BV7-20KPEG (ligand, not fully specified (bridges); ends and bridges not checked) chain 1: QLYSALANKCCHVGCTKRSLARFC chain 2: ASWMEE[Phe(4-Ac)](PEG20K)IKLCGRELVRAQIAICGMSTWS | – | 15 fold | 54 ng/mL | – |

Now from value to binder, other results behind:

| Functional Assay Raw EC50 Values [ng/mL]; cAMP increase in THP-1 cells, 11/5/2010 [1] | In vitro Activity Fold Loss [2] | Functional Assay Raw EC50 Values [ng/mL]; cAMP increase in THP-1 cells, 11/4/2010 [1] | Binder | also measured |
| --- | --- | --- | --- | --- |
| 43 ng/mL | 17 fold | – | RLX-D-AL2-20KPEG (ligand, not fully specified; para-acetylphenylalanine (pAF) at position 2 of the A chain, 20K PEGylated) chain 1: QXYSALANKCCHVGCTKRSLARFC chain 2: DSWMEEVIKLCGRELVRAQIAICGMSTWS | – |
| 56 ng/mL | 17 fold | – | RLX-A-AV13-20KPEG (ligand, not fully specified; para-acetylphenylalanine (pAF) at position 13 of the A chain, 20K PEGylated) chain 1: QLYSALANKCCHXGCTKRSLARFC chain 2: ASWMEEVIKLCGRELVRAQIAICGMSTWS | – |
| 41 ng/mL | 12 fold | – | RLX-A-AA5-20KPEG (ligand, not fully specified; para-acetylphenylalanine (pAF) at position 5 of the A chain, 20K PEGylated) chain 1: QLYSXLANKCCHVGCTKRSLARFC chain 2: ASWMEEVIKLCGRELVRAQIAICGMSTWS | – |
| 68 ng/mL | 21 fold | – | RLX-A-AR18-20KPEG (ligand, not fully specified; para-acetylphenylalanine (pAF) at position 18 of the A chain, 20K PEGylated) chain 1: QLYSALANKCCHVGCTKXSLARFC chain 2: ASWMEEVIKLCGRELVRAQIAICGMSTWS | – |
| 58 ng/mL | 22 fold | – | RLX-D-BE5-20KPEG (ligand, not fully specified (bridges); ends and bridges not checked) chain 1: QLYSALANKCCHVGCTKRSLARFC chain 2: DSWM[Phe(4-Ac)](PEG20K)EVIKLCGRELVRAQIAICGMSTWS | – |
| – | 48 fold | 172 ng/mL | RLX-A-BA18-20KPEG (ligand, not fully specified (bridges); ends and bridges not checked) chain 1: QLYSALANKCCHVGCTKRSLARFC chain 2: ASWMEEVIKLCGRELVR[Phe(4-Ac)](PEG20K)QIAICGMSTWS | – |
